In publication PMC4002121, “Trimethylation of Histone H3 Lysine 36 by Human Methyltransferase PRDM9 Protein” (The Journal of Biological Chemistry, 2014) one finds Km data, which are given here for 1 protein.

The term Km denotes the concentration of substrate that gives half-maximal velocity.

What all share (assay): purified protein, by the assay type
Holding throughout (conditions): other: apparent Km of the peptide, AdoMet saturating 448 μM, 1 nM PRDM9, 10 mM Tris-HCl pH 8.5, 0.01% Triton X-100, 10 mM DTT, 20 min, 23 °C, mean ± S.D., n = 3, NA = not active

Substrate in series [1]: CNCCCC[C@H](NC(=O)[C@@H](NC(=O)CNC(=O)CNC(=O)[C@@H](NC(=O)[C@H](C)NC(=O)[C@@H]1CCCN1C(=O)[C@H](C)NC(=O)[C@H](CO)NC(=O)[C@H](CCCCN)NC(=O)[C@H](CCCNC(=N)N)NC(=O)[C@H](C)NC(=O)[C@H](C)NC(=O)[C@H](CCCCN)NC(=O)[C@@H](NC(=O)[C@H](C)N)[C@@H](C)O)[C@@H](C)O)C(C)C)C(=O)N[C@@H](CCCCN)C(=O)N1CCC[C@H]1C(=O)N[C@@H](Cc1c[nH]cn1)C(=O)N[C@@H](CCCNC(=N)N)C(=O)N[C@@H](Cc1ccc(O)cc1)C(=O)N[C@@H](CCCNC(=N)N)C(=O)N1CCC[C@H]1C(=O)NCC(=O)O

Substrate in series [2]: CC(C)[C@H](NC(=O)CNC(=O)CNC(=O)[C@@H](NC(=O)[C@H](C)NC(=O)[C@@H]1CCCN1C(=O)[C@H](C)NC(=O)[C@H](CO)NC(=O)[C@H](CCCCN)NC(=O)[C@H](CCCNC(=N)N)NC(=O)[C@H](C)NC(=O)[C@H](C)NC(=O)[C@H](CCCCN)NC(=O)[C@@H](NC(=O)[C@H](C)N)[C@@H](C)O)[C@@H](C)O)C(=O)N[C@@H](CCCCN(C)C)C(=O)N[C@@H](CCCCN)C(=O)N1CCC[C@H]1C(=O)N[C@@H](Cc1c[nH]cn1)C(=O)N[C@@H](CCCNC(=N)N)C(=O)N[C@@H](Cc1ccc(O)cc1)C(=O)N[C@@H](CCCNC(=N)N)C(=O)N1CCC[C@H]1C(=O)NCC(=O)O

Substrate in series [3]: CC(C)C[C@H](NC(=O)[C@H](CCC(N)=O)NC(=O)[C@H](CCCCN)NC(=O)[C@H](CCCNC(=N)N)NC(=O)[C@@H]1CCCN1C(=O)[C@H](C)NC(=O)[C@H](CCCCN)NC(=O)CNC(=O)CNC(=O)[C@@H](NC(=O)[C@H](CO)NC(=O)[C@H](CCCCN)NC(=O)[C@H](CCCNC(=N)N)NC(=O)[C@H](C)NC(=O)[C@@H](NC(=O)[C@H](CCC(N)=O)NC(=O)[C@H](CCCCN(C)C)NC(=O)[C@@H](NC(=O)[C@H](CCCNC(=N)N)NC(=O)[C@H](C)N)[C@@H](C)O)[C@@H](C)O)[C@@H](C)O)C(=O)N[C@@H](C)C(=O)N[C@H](C(=O)N[C@@H](CCCCN)C(=O)N[C@@H](C)C(=O)N[C@@H](C)C(=O)O)[C@@H](C)O

Substrate in series [4]: CNCCCC[C@H](NC(=O)[C@@H](NC(=O)[C@H](CCCNC(=N)N)NC(=O)[C@H](C)N)[C@@H](C)O)C(=O)N[C@@H](CCC(N)=O)C(=O)N[C@H](C(=O)N[C@@H](C)C(=O)N[C@@H](CCCNC(=N)N)C(=O)N[C@@H](CCCCN)C(=O)N[C@@H](CO)C(=O)N[C@H](C(=O)NCC(=O)NCC(=O)N[C@@H](CCCCN)C(=O)N[C@@H](C)C(=O)N1CCC[C@H]1C(=O)N[C@@H](CCCNC(=N)N)C(=O)N[C@@H](CCCCN)C(=O)N[C@@H](CCC(N)=O)C(=O)N[C@@H](CC(C)C)C(=O)N[C@@H](C)C(=O)N[C@H](C(=O)N[C@@H](CCCCN)C(=O)N[C@@H](C)C(=O)N[C@@H](C)C(=O)O)[C@@H](C)O)[C@@H](C)O)[C@@H](C)O

Substrate in series [5]: CC(C)[C@H](NC(=O)CNC(=O)CNC(=O)[C@@H](NC(=O)[C@H](C)NC(=O)[C@@H]1CCCN1C(=O)[C@H](C)NC(=O)[C@H](CO)NC(=O)[C@H](CCCCN)NC(=O)[C@H](CCCNC(=N)N)NC(=O)[C@H](C)NC(=O)[C@H](C)NC(=O)[C@H](CCCCN)NC(=O)[C@@H](NC(=O)[C@H](C)N)[C@@H](C)O)[C@@H](C)O)C(=O)N[C@@H](CCCCN)C(=O)N[C@@H](CCCCN)C(=O)N1CCC[C@H]1C(=O)N[C@@H](Cc1c[nH]cn1)C(=O)N[C@@H](CCCNC(=N)N)C(=O)N[C@@H](Cc1ccc(O)cc1)C(=O)N[C@@H](CCCNC(=N)N)C(=O)N1CCC[C@H]1C(=O)NCC(=O)O

B1: PRDM9 (Homo sapiens) (protein)
chain: SEPQDDDYLYCEMCQNFFIDSCAAHGPPTFVKDSAVDKGHPNRSALSLPPGLRIGPSGIPQAGLGVWNEASDLPLGLHFGPYEGRITEDEEAANNGYSWLITKGRNCYEYVDGKDKSWANWMRYVNCARDDEEQNLVAFQYHRQIFYRTCRVIRPGCELLVWYGDEYGQELGIKWGSKWKKELMAGREPKP
Turning to B1, the Km came out at 2.4 ± 0.4 µM in series [1]; 2.5 ± 0.3 µM in series [2]; 3 ± 1 µM in series [3]; 1 ± 0.2 µM in series [4]; 1.5 ± 0.2 µM in series [5].
